Among the data in article PMC5955432 are Ka values, retold here.

For this test, the target named is Skp1-FBW7 complex (UniProt Q969H0). Kind of test: ITC; MicroCal VP-ITC, 30°C; cell: 15 μM purified Skp1-FBW7 complex in 50 mM phosphate buffer, pH 7.4; syringe: 321 μM FIRΔexon2; 10 μL injections, 20 s, 150 s delay. In general terms: In ITC the heat of successive injections is recorded.
Chain of UniProt Q969H0 (Q969H0 whole entry, chain 1 of 2): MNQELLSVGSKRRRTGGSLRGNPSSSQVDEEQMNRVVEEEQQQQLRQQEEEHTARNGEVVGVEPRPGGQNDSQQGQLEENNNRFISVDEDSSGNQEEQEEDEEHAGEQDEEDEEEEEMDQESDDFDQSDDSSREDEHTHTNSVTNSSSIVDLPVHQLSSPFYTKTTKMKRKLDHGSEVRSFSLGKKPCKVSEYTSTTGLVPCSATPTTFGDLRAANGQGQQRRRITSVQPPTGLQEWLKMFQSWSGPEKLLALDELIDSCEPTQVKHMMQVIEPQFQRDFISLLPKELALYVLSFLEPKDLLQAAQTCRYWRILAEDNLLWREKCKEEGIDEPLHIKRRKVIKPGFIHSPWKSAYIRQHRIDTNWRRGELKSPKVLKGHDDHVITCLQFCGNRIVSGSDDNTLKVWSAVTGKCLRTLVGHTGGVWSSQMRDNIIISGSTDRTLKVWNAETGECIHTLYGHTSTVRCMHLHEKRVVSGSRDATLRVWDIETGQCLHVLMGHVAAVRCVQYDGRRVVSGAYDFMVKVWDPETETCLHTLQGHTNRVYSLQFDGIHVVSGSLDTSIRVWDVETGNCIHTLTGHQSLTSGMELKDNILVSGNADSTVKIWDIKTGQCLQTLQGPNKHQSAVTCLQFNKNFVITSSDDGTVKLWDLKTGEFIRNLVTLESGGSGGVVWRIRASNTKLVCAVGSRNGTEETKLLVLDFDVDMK
Chain of UniProt Q969H0 (P63208 whole entry, chain 2 of 2, further chain): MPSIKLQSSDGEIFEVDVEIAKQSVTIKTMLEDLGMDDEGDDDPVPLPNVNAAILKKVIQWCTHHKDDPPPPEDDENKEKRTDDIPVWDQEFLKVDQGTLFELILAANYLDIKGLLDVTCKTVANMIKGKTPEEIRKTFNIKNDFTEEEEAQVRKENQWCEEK

As for “FIRΔexon2 (alternative splicing variant of far upstream element binding protein 1 (FUBP1) interacting repressor, FIR / PUF60, lacking exon 2) (natural protein)”, the Ka is over 1e+08 M⁻¹.
